Assay results from article PMC5834165, “Crystal structures of PCNA mutant proteins defective in gene silencing suggest a novel interaction site on the front face of the PCNA ring” (PLoS ONE, 2018).
Residue numbers refer to the chain shown, from its start. Names and notes keep the numbering of the source.

B1: D41A/D42A mutant PCNA protein from Saccharomyces cerevisiae (natural protein)
chain: MLEAKFEEASLFKRIIDGFKDCVQLVNFQCKEDGIIAQAVAASRVLLVSLEIGVEAFQEYRCDHPVTLGMDLTSLSKILRCGNNTDTLTLIADNTPDSIILLFEDTKKDRIAEYSLKLMDIDADFLKIEELQYDSTLSLPSSEFSKIVRDLSQLSDSINIMITKETIKFVADGDIGSGSVIIKPFVDMEHPETSIKLEMDQPVDLTFGAKYLLDIIKGSSLSDRVGIRLSSEAPALFQFDLKSGFLQFFLAPKFNDEE
notes: PCNA, Saccharomyces cerevisiae, with D41A and D42A; also called D41A/D42A PCNA; encoded by the pol30-6 allele; source: E. coli, overexpressed, purified as described previously [35]
B2: L126A/I128A mutant PCNA protein from Saccharomyces cerevisiae (natural protein)
chain: B1 chain with A41D, A42D, L126A, I128A
notes: PCNA, Saccharomyces cerevisiae, with L126A and I128A; also called L126A/I128A PCNA; encoded by the pol30-79 allele; source: E. coli, overexpressed, purified as described previously [35]
B3: R61A/D63A mutant PCNA protein from Saccharomyces cerevisiae (natural protein)
chain: B1 chain with A41D, A42D, R61A, D63A
notes: PCNA, Saccharomyces cerevisiae, with R61A and D63A; also called R61A/D63A PCNA; encoded by the pol30-8 allele; source: E. coli, overexpressed, purified as described previously [35]

Target: the molecule itself
Assay: native gel or EMSA; proteins at 0.1, 0.5, 1.0 mg/ml in 10 mM Tris-Cl pH 7.6, 150 mM NaCl, 2.5% Ficoll-400, 10 mM EDTA, 5 min; 4-20% gradient nondenaturing Tris-Glycine gel at 4°C; Coomassie blue; self-association (trimer)

| Protein | stoichiometry N |
| --- | --- |
| B1 | 3 |
| B2 | 3 |
| B3 | 3 |
